Values belong to the binder of their own block, whether it stands above or below them.
Assays:
[1] = molecular target: hair proteins; experiment: ELISA on coated hair proteins, blocking 0.5% BSA, iMab (OD280 1.71) diluted 100 x, anti-VSV-HRP; background without iMab 0.095
[2] = molecular target: skin proteins; experiment: ELISA on coated skin proteins, blocking 0.5% BSA, iMab (OD280 0.357) diluted 100 x, anti-VSV-HRP; background without iMab 0.484
[3] = molecular target: skin proteins; experiment: ELISA on coated skin proteins, blocking Seablock, iMab (OD280 0.357) diluted 100 x, anti-VSV-HRP; background without iMab 0.131
[4] = molecular target: ELK (3% skim milk powder solution); experiment: ELISA, control well with ELK only, ~50 ng iMab per well, anti-VSV-HRP; urea purification
[5] = molecular target: hair proteins; experiment: ELISA on coated hair proteins, blocking 0.5% BSA, iMab (OD280 1.09) diluted 100 x, anti-VSV-HRP; background without iMab 0.095
[6] = molecular target: skin proteins; experiment: ELISA on coated skin proteins, blocking 0.5% BSA, iMab (OD280 0.399) diluted 100 x, anti-VSV-HRP; background without iMab 0.187
[7] = molecular target: skin proteins; experiment: ELISA on coated skin proteins, blocking Seablock, iMab (OD280 0.399) diluted 100 x, anti-VSV-HRP; background without iMab 0.084
[8] = molecular target: hair proteins; experiment: ELISA on coated hair proteins, blocking 0.5% BSA, iMab (OD280 2.36) diluted 100 x, anti-VSV-HRP; background without iMab 0.095
[9] = molecular target: chicken lysozyme (chicken), P00698; experiment: ELISA versus lysozyme, iMab dilution 1:10, before pH shock; conditions: remark: other sources report otherwise
Chain of chicken lysozyme (chicken), P00698 (P00698 19-147 limits assumed): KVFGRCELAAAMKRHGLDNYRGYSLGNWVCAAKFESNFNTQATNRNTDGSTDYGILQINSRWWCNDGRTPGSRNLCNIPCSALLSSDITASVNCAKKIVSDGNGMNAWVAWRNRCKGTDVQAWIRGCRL

[10] = molecular target: chicken lysozyme (chicken), P00698; experiment: ELISA versus lysozyme, iMab dilution 1:100, before pH shock; conditions: remark: other sources report otherwise
[11] = molecular target: chicken lysozyme (chicken), P00698; experiment: ELISA versus lysozyme, iMab dilution 1:1000, before pH shock; conditions: remark: other sources report otherwise
[12] = molecular target: chicken lysozyme (chicken), P00698; experiment: ELISA versus lysozyme, iMab dilution 1:10,000, before pH shock; conditions: remark: other sources report otherwise
[13] = molecular target: ELK (3% skim milk powder solution); experiment: ELISA, control well with ELK only, ~50 ng iMab per well, anti-VSV-HRP; purification by heat (60 C)
[14] = molecular target: chicken lysozyme (chicken), P00698; experiment: ELISA, well coated with lysozyme (100 ug/ml) and blocked with ELK, ~50 ng iMab per well, anti-VSV-HRP; urea purification; conditions: remark: other sources report otherwise
[15] = molecular target: chicken lysozyme (chicken), P00698; experiment: ELISA versus lysozyme, iMab dilution 1:10, after precipitation with potassium acetate pH 4.8 and redissolving in PBS pH 7.5; conditions: remark: other sources report otherwise
[16] = molecular target: chicken lysozyme (chicken), P00698; experiment: ELISA versus lysozyme, iMab dilution 1:100, after precipitation with potassium acetate pH 4.8 and redissolving in PBS pH 7.5; conditions: remark: other sources report otherwise
[17] = molecular target: chicken lysozyme (chicken), P00698; experiment: ELISA versus lysozyme, iMab dilution 1:1000, after precipitation with potassium acetate pH 4.8 and redissolving in PBS pH 7.5; conditions: remark: other sources report otherwise
[18] = molecular target: chicken lysozyme (chicken), P00698; experiment: ELISA versus lysozyme, iMab dilution 1:10,000, after precipitation with potassium acetate pH 4.8 and redissolving in PBS pH 7.5; conditions: remark: other sources report otherwise
[19] = molecular target: chicken lysozyme (chicken), P00698; experiment: ELISA, well coated with lysozyme (100 ug/ml) and blocked with ELK, ~50 ng iMab per well, anti-VSV-HRP; purification by heat (60 C); conditions: remark: other sources report otherwise
[20] = molecular target: hair proteins; experiment: ELISA on coated hair proteins, blocking 0.5% BSA, iMab (OD280 3.19) diluted 100 x, anti-VSV-HRP; background without iMab 0.095
[21] = molecular target: skin proteins; experiment: ELISA on coated skin proteins, blocking 0.5% BSA, iMab (OD280 0.828) diluted 250 x, anti-VSV-HRP; background without iMab 0.484
[22] = molecular target: skin proteins; experiment: ELISA on coated skin proteins, blocking Seablock, iMab (OD280 0.828) diluted 250 x, anti-VSV-HRP; background without iMab 0.131
[23] = molecular target: skin proteins; experiment: ELISA on coated skin proteins, blocking 0.5% BSA, iMab (OD280 0.711) diluted 200 x, anti-VSV-HRP; background without iMab 0.484
[24] = molecular target: skin proteins; experiment: ELISA on coated skin proteins, blocking Seablock, iMab (OD280 0.711) diluted 200 x, anti-VSV-HRP; background without iMab 0.131
[25] = molecular target: hair proteins; experiment: ELISA on coated hair proteins, blocking 0.5% BSA, iMab (OD280 4.22) diluted 100 x, anti-VSV-HRP; background without iMab 0.095
[26] = molecular target: skin proteins; experiment: ELISA on coated skin proteins, blocking 0.5% BSA, iMab (OD280 0.323) diluted 100 x, anti-VSV-HRP; background without iMab 0.484
[27] = molecular target: skin proteins; experiment: ELISA on coated skin proteins, blocking Seablock, iMab (OD280 0.323) diluted 100 x, anti-VSV-HRP; background without iMab 0.131
[28] = molecular target: hair proteins; experiment: ELISA on coated hair proteins, blocking 0.5% BSA, iMab (OD280 3.60) diluted 100 x, anti-VSV-HRP; background without iMab 0.095
[29] = molecular target: skin proteins; experiment: ELISA on coated skin proteins, blocking 0.5% BSA, iMab (OD280 0.585) diluted 200 x, anti-VSV-HRP; background without iMab 0.484
[30] = molecular target: skin proteins; experiment: ELISA on coated skin proteins, blocking Seablock, iMab (OD280 0.585) diluted 200 x, anti-VSV-HRP; background without iMab 0.131
[31] = molecular target: hair proteins; experiment: ELISA on coated hair proteins, blocking 0.5% BSA, iMab (OD280 2.82) diluted 100 x, anti-VSV-HRP; background without iMab 0.095
[32] = molecular target: skin proteins; experiment: ELISA on coated skin proteins, blocking 0.5% BSA, iMab (OD280 0.327) diluted 100 x, anti-VSV-HRP; background without iMab 0.484
[33] = molecular target: skin proteins; experiment: ELISA on coated skin proteins, blocking Seablock, iMab (OD280 0.327) diluted 100 x, anti-VSV-HRP; background without iMab 0.131
[34] = molecular target: bovine serum albumin (bovine) (UniProt P02769); experiment: gel-shift, 2 mg/ml conjugate with 10 mg/ml BSA, 7.5% native PAA gel; Rf of the conjugate alone 0.66
Chain of bovine serum albumin (bovine) (P02769 25-607 limits assumed): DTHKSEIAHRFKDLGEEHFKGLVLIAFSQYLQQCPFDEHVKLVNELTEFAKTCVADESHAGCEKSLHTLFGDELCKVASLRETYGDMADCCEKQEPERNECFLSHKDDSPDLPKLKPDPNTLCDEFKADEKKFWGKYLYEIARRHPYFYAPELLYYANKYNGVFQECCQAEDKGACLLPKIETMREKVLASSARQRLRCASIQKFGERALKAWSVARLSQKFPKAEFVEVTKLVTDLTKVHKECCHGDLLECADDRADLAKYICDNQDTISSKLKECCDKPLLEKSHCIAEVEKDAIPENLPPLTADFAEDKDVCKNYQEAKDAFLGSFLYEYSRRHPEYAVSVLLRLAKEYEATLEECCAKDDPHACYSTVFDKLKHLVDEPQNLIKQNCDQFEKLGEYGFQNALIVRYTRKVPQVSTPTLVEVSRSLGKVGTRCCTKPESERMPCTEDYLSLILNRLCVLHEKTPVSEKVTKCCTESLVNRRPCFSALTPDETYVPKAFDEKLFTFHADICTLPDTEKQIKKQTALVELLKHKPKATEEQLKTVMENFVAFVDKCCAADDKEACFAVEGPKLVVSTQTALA

[35] = molecular target: bovine serum albumin (bovine) (UniProt P02769); experiment: gel-shift, 0.1 mg/ml conjugate with 10 mg/ml BSA, 7.5% native PAA gel, in situ peroxidase activity; Rf of the conjugate alone 0.31

- OD450 in Elisa [1]: 0.736 OD450
- OD450 in Elisa [2]: 2.23 OD450
- OD450 in Elisa [3]: 0.699 OD450
B1: iMab143-xx-0034 (designed binder)
chain: MIKVYTDRENYGAVGSQVTLHCSASGYTIGPISFTWRYQPEGDRDAISIFHYNMGDGSIVIHNLDYSDNGSFTCAAYRIRSGGYYCFLTYLMDYGNSSQVTLYVFE

B2: iMab122 (designed binder, not shown: small tags and cut ends)
chain: NVKLVEKGGNFVENDDDLKLTCRASGRTFSSRTMGWFRQAPNDDSTNVATIRWNGGSTYYTNYGDSVKERFDIRVDQASNTVTLSMDDLQPEDSAEYNCAGTDIGDGWSGRYDYRGQGTDVTVSS
- Absorbtion (450 nm) (absorbance at 450 nm) [4]: 0.051

- OD450 in Elisa [5]: 2.35 OD450
B3: iMab142-xx-0038 (designed binder)
chain: NVKLVEKGGNFVENDDDLKLTCRAEGYTIGPYSMGWFRQAPNDDSTNVSCINMGGGITYYGDSVKERFDIRRDNASNTVTLSMDDLQPEDSAEYNCATTLAPFGIATMYGPLNPAAFESRGQGTDVTVSS

- OD450 in Elisa [6]: 0.306 OD450
- OD450 in Elisa [7]: 0.088 OD450
B4: iMab142-xx-0032 (designed binder)
chain: MNVKLVEKGGNFVENDDDLKLTCRAEGYTIGPYSMGWFRQAPNDDSTNVSCINMGGGITYYGDSVKERFDIRRDNASNTVTLSMDDLQPEDSAEYNCAATLAPFSIATMYGGLLDTAFDSRGQGTDVTVSS

- OD450 in Elisa [8]: 1.32 OD450
B5: iMab142-xx-0039 (designed binder)
chain: NVKLVEKGGNFVENDDDLKLTCRAEGYTIGPYSMGWFRQAPNDDSTNVSCINMGGGITYYGDSVKERFDIRRDNASNTVTLSMDDLQPEDSAEYNCAADYGRCSWLIRAYNYRGQGTDVTVSS

B6: iMab111 (designed binder)
chain: NVKLVCKGGNFVENDDDLKLTCRAEGYTIGPYCMGWFRQAPNDDSTNVATINMGGGITYYGDSVKERFDIRRDNASNTVTLSMDDLQPEDSAEYNCAGDSTIYASYYECGHGLSTGGYGYDSHYRCQGTDVTVSS
- Absorbtion (450 nm) (absorbance at 450 nm) [4]: 0.043

B7: iMab100 (designed binder, not shown: small tags and cut ends)
chain: NVKLVEKGGNFVENDDDLKLTCRAEGYTIGPYCMGWFRQAPNDDSTNVATINMGGGITYYGDSVKERFDIRRDNASNTVTLSMDDLQPEDSAEYNCAGDSTIYASYYECGHGLSTGGYGYDSHYRGQGTDVTVSS
- Signal on Elisa [9]: 0.36
- Signal on Elisa [10]: 0.228
- Signal on Elisa [11]: 0.128
- Signal on Elisa [12]: 0.059
- Absorbtion (450 nm) (absorbance at 450 nm) [4]: 0.04
- Absorbtion (450 nm) (absorbance at 450 nm) [13]: 0.041
- Absorbtion (450 nm) (absorbance at 450 nm) [14]: 0.494
- Signal on Elisa [15]: 0.39
- Signal on Elisa [16]: 0.263
- Signal on Elisa [17]: 0.169
- Signal on Elisa [18]: 0.059
- Absorbtion (450 nm) (absorbance at 450 nm) [19]: 0.369

B8: iMab116 (designed binder, not shown: small tags and cut ends)
chain: NVKLVEKGGNFVENDDDLKLTCRAEGYTIGPYCMGWFRQAPNDDSTNVATINMGGGITYYGDSVKERFDIRRDNASNTVTLSMDDLQPEDSAEYNGAGDSTIYGSYYECGHGLSTGGYGYDSHYRGQGTDVTVSS
- Absorbtion (450 nm) (absorbance at 450 nm) [4]: 0.042

- OD450 in Elisa [20]: 0.442 OD450
- OD450 in Elisa [21]: 1.66 OD450
- OD450 in Elisa [22]: 0.29 OD450
B9: iMab143-xx-0033 (designed binder)
chain: MIKVYTDRENYGAVGSQVTLHCSASGYTIGPISFTWRYQPEGDRDAISIFHYNMGDGSIVIHNLDYSDNGSFTCAADLHGLGLRRISTYEYGNSSQVTLYVFE

- OD450 in Elisa [23]: 0.824 OD450
- OD450 in Elisa [24]: 1.79 OD450
B10: iMab143-xx-0035 (designed binder)
chain: MIKVYTDRENYGAVGSQVTLHCSASGYTIGPISFTWRYQPEGDRDAISIFHYNMGDGSIVIHNLDYSDNGSFTCAAGADCSDYGIMYGMDYGNSSQVTLYVFE

- OD450 in Elisa [25]: 0.262 OD450
- OD450 in Elisa [26]: 2.02 OD450
- OD450 in Elisa [27]: 0.56 OD450
B11: iMab143-xx-0030 (designed binder)
chain: MIKVYTDRENYGAVGSQVTLHCSASGYTIGPISFTWRYQPEGDRDAISIFHYNMGDGSIVIHNLDYSDNGSFTCAAVFAVVTVATKPDPRFYDYGNSSQVTLYVFEA

- OD450 in Elisa [28]: 0.203 OD450
- OD450 in Elisa [29]: 1.88 OD450
- OD450 in Elisa [30]: 0.212 OD450
B12: iMab143-xx-0029 (designed binder)
chain: MIKVYTDRENYGAVGSQVTLHCSASGYTIGPISFTWRYQPEGDRDAISIFHYNMGDGSIVIHNLDYSDNGSFTCAARFVDALYEPKSCTSRNYAYGNSSQVTLYVFE

- OD450 in Elisa [31]: 1.05 OD450
- OD450 in Elisa [32]: 2.62 OD450
- OD450 in Elisa [33]: 2.88 OD450
B13: iMab143-xx-0031 (designed binder)
chain: MIKVYTDRENYGAVGSQVTLHCSASGYTIGPISFTWRYQPEGDRDAISIFHYNMGDGSIVIHNLDYSDNGSFTCAATTPFIDYDPNDICPSWYEYDYGNSSQVTLYVFE

- retardation factor (Rf) [34]: 0.66
B14: TRITC labeled iMab142-xx-0002 (designed binder, not shown: small tags and cut ends)
chain: MNVKLVEKGGNFVENDDDLKLTCRAEGYTIGPYSMGWFRQAPNDDSTNVSCINMGGGITYYGDSVKERFDIRRDNASNTVTLSMDDLQPEDSAVYNCAADWWDGFTYGSTWYNPSSYDYRGQGTDVTVSS
modifications: TRITC covalently on primary amines, meaning the N-terminus and Lys side chains. Positions and number are not stated; labelled Lys is written K.

- retardation factor (Rf) [35]: 0.31
B15: iMab142-xx-0002-HRP conjugate (protein, not shown: small tags and cut ends)
chain: MNVKLVEKGGNFVENDDDLKLTCRAEGYTIGPYSMGWFRQAPNDDSTNVSCINMGGGITYYGDSVKERFDIRRDNASNTVTLSMDDLQPEDSAVYNCAADWWDGFTYGSTWYNPSSYDYRGQGTDVTVSS
modifications: Amines (N-terminus and Lys) were thiolated with SATA, deacetylated, and coupled by thioether to maleimide-activated horseradish peroxidase. The sites and the iMab:HRP ratio of the product are not stated.

Source: patent publication US20060140889A1
